Consider 1 molecule from patent US20240158537A1.

For this assay, the target named is IL-7 receptor (IL-7R), heterodimer of IL-7R alpha (CD127) and common gamma chain (CD132), on primary human T cells (human) (UniProt P16871). The assay is described as follows: cell-based or functional assay.
IL-7 receptor (IL-7R), heterodimer of IL-7R alpha (CD127) and common gamma chain (CD132), on primary human T cells (human), sequence (P16871 21-459, chain 1 of 2): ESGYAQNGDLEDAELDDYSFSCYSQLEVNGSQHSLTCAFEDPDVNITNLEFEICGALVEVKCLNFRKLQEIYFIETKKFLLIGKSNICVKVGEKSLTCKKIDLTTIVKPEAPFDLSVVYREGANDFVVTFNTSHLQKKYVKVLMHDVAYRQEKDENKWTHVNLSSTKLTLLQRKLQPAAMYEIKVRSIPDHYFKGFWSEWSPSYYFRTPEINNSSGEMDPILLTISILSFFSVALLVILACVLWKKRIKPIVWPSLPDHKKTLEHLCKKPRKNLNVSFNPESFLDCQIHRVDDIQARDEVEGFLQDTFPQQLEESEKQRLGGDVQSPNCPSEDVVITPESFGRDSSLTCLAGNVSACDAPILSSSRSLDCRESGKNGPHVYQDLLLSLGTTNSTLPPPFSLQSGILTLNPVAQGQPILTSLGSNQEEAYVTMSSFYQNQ
IL-7 receptor (IL-7R), heterodimer of IL-7R alpha (CD127) and common gamma chain (CD132), on primary human T cells (human), sequence (P31785 23-369, chain 2 of 2, further chain): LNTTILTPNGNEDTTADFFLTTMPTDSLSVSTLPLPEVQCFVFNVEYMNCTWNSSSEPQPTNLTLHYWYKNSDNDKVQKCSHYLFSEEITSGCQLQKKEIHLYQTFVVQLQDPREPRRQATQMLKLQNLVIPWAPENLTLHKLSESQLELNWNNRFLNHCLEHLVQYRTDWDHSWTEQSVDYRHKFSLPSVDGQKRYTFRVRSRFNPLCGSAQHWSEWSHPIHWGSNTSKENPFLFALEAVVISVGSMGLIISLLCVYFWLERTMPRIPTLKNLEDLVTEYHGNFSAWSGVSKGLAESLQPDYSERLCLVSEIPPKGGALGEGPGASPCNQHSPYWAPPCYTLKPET

B1: WT IL-7 His (SEQ ID NO: 2), native IL-7 with His-tag (ligand)
chain: DCDIEGKDGKQYESVLMVSIDQLLDSMKEIGSNCLNNEFNFFKRHICDANKEGMFLFRAARKLRQFLKMNSTGDFDLHLLKVSEGTTILLNCTGQVKGRKPAALGEAQPTKSLEENKSLKEQKKLNDLCFLKRLLQEIKTCWNKILMGTKEHVDHHHHHH
Molecule B1 came in with an Avg EC50 (nM) (human pSTAT5), CD4 Memory of 0.001 nM; an Avg EC50 (nM) (human pSTAT5), CD4 Naive of 0.001 nM; an Avg EC50 (nM) (human pSTAT5), CD4 Treg of 0.033 nM; an Avg EC50 (nM) (human pSTAT5), CD8 Memory of 0.006 nM. In addition, the Avg EC50 (nM) (human pSTAT5), CD8 Naive stood at 0.002 nM.
